Results reported in the supplement of paper PMC10126150.
± gives the standard deviation of the averaged measurements.

system: ATP; experiment: switch fluorescence ratio, 500 uM ATP over buffer (Cy3 cluster intensity, sum of 5 cycles each) (fold (ratio)); higher = stronger signal-on switching upon ATP binding; sequences stand for … in TCGTCGGCAGCGTCAGATGTGTATAAGAGACAGTTTTTTTTTTTTTTTTTTTTTTTTT…TC; details: aptamer strand: ATP DNA aptamer (quencher-CACCTGGGGGAGTATTGCGGAGGAAGG + anchor), 100 nM annealed; ATP concentration: 500 uM
How it was run: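 Switching-strand clusters labelled with Cy3 on a modified Illumina MiSeq flow-cell were annealed to 100 nM quencher-labelled ATP aptamer, imaged in selection buffer, and re-imaged after 15 min with 500 uM ATP at 22 °C. This was done over five cycles with NaOH stripping and re-annealing in between. The fluorescence ratio is summed target-cycle over summed buffer-cycle Cy3 intensity per cluster, averaged per switch-domain sequence, excluding clusters outside 100-1000 RFU.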
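Further: ATP exposure 15 min at 22 °C before imaging.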

| Sequence | switch fluorescence ratio |
| --- | --- |
| ACAGTCGACT | 1.032 ± 0.0074 |
| ACAGTCGGTG | 1.028 ± 0.0066 |
| ACAGTCTGAC | 1.0082 ± 0.00053 |
| ACAGTGGCAT | 0.997 ± 0.034 |
| ACAGTTAAGT | 1.04 ± 0.039 |
| ACAGTTTTCT | 1.01 ± 0.024 |
| ACATAAGAGG | 1.05 ± 0.013 |
| ACATACAGGG | 1.31 ± 0.038 |
| ACATACGGGG | 1.3 ± 0.1 |
| ACATACTTTA | 1.32 ± 0.015 |
| ACATAGAGAT | 1.02 ± 0.039 |
| ACATAGATTT | 1.03 ± 0.029 |
| ACATAGTTGG | 0.966 ± 0.024 |
| ACATATATGG | 0.9752 ± 0.0051 |
| ACATATTTGA | 1.01 ± 0.03 |
| ACATCAGAAG | 1.02 ± 0.039 |
| ACATCCAATT | 0.99 ± 0.019 |
| ACATCTAGGC | 1.069 ± 0.0093 |
| ACATCTCGTT | 0.96 ± 0.041 |
| ACATGATGTT | 1 ± 0.028 |
| ACATGGCATC | 1.05 ± 0.046 |
| ACATGGGCTA | 1.09 ± 0.11 |
| ACATGGGGAG | 1.02 ± 0.016 |
| ACATTAATTC | 0.99573 ± 0.00079 |
| ACATTATCCA | 1.01 ± 0.0068 |

| Sequence | switch fluorescence ratio |
| --- | --- |
| ACATTATTTC | 1.05 ± 0.033 |
| ACATTCACGT | 1.52 ± 0.033 |
| ACATTCAGTA | 0.991 ± 0.014 |
| ACATTGACGC | 1.08 ± 0.021 |
| ACATTGGCGG | 0.993 ± 0.066 |
| ACATTGGTAT | 1 ± 0.011 |
| ACATTGGTGG | 0.993 ± 0.026 |
| ACATTTGGGG | 1.03 ± 0.066 |
| ACATTTTACT | 1.12 ± 0.014 |
| ACCAAAGGCT | 1.03 ± 0.04 |
| ACCAAATTAT | 1.03 ± 0.058 |
| ACCAAGCCAT | 1.09 ± 0.077 |
| ACCAAGGGGT | 1.02 ± 0.054 |
| ACCAATGTTC | 1.03 ± 0.033 |
| ACCAATTGGT | 1.02 ± 0.012 |
| ACCAATTTGC | 1.05 ± 0.043 |
| ACCACAAAGG | 1.48 ± 0.61 |
| ACCACCTTAC | 2.32 ± 0.29 |
| ACCACGGTTG | 1.07 ± 0.023 |
| ACCAGGCTTG | 1.02 ± 0.016 |
| ACCAGTGATG | 1.01 ± 0.039 |
| ACCATCAAAT | 0.9853 ± 0.0068 |
| ACCATCGTAG | 1.0191 ± 0.00047 |
| ACCATGACGG | 1.044 ± 0.0092 |
| ACCATGCGTT | 0.992 ± 0.03 |

| Sequence | switch fluorescence ratio |
| --- | --- |
| ACCATGGGCT | 0.974 ± 0.038 |
| ACCATGTACT | 1.07 ± 0.016 |
| ACCATTGGGG | 0.993 ± 0.031 |
| ACCATTTTTG | 0.985 ± 0.057 |
| ACCCAAACAA | 1.06 ± 0.028 |
| ACCCCGGTCT | 1.04 ± 0.011 |
| ACCCGAAGGC | 1.08 ± 0.043 |
| ACCCGAGCAC | 2.13 ± 0.054 |
| ACCCGCCTTT | 1.086 ± 0.0021 |
| ACCCGGGCAG | 1.049 ± 0.0047 |
| ACCCGGGGTC | 1 ± 0.053 |
| ACCCGTTGCC | 1.03 ± 0.057 |
| ACCCTCGGGG | 1.0015 ± 0.00096 |
| ACCCTCTGGG | 1.01 ± 0.021 |
| ACCCTGGACC | 1.066 ± 0.0086 |
| ACCCTGTGTA | 1 ± 0.021 |
| ACCCTTCCAA | 1.72 ± 0.072 |
| ACCCTTTTAC | 1.13 ± 0.052 |
| ACCGAATGTT | 0.999 ± 0.022 |
| ACCGAGGCTT | 1.45 ± 0.051 |
| ACCGCTCGAA | 1.15 ± 0.056 |
| ACCGCTGTGG | 1.06 ± 0.019 |
| ACCGGCCCGG | 0.9848 ± 0.0085 |
| ACCGGCGGTT | 1.01 ± 0.032 |
| ACCGGCGTTT | 1.05 ± 0.051 |

| Sequence | switch fluorescence ratio |
| --- | --- |
| ACCGGGGGCT | 1.034 ± 0.0052 |
| ACCGGGGGGT | 1.37 ± 0.22 |
| ACCGGGGTTA | 0.986 ± 0.033 |
| ACCGGTGTTC | 1.021 ± 0.0069 |
| ACCGTCTGTA | 1.014 ± 0.0058 |
| ACCGTGGCGT | 1.0212 ± 0.001 |
| ACCGTTTTTT | 1 ± 0.017 |
| ACCTAACACG | 1.19 ± 0.037 |
| ACCTAGTGTG | 1.135 ± 0.0024 |
| ACCTATGGGA | 1 ± 0.028 |
| ACCTCAGCTT | 1.48 ± 0.021 |
| ACCTGACTTG | 1.06 ± 0.014 |
| ACCTGAGGGG | 1.024 ± 0.0035 |
| ACCTGGGTGG | 1.03 ± 0.036 |
| ACCTTATATA | 1.056 ± 0.0094 |
| ACCTTCGTTG | 1.22 ± 0.003 |
| ACCTTGGGGA | 1.25 ± 0.4 |
| ACCTTTTAAG | 1.23 ± 0.3 |
| ACCTTTTAGG | 0.965 ± 0.036 |
| ACGAAAGTCA | 1.052 ± 0.01 |
| ACGAACAGTT | 1.15 ± 0.047 |
| ACGAAGATGC | 1.24 ± 0.15 |
| ACGAAGGCTA | 1.14 ± 0.028 |
| ACGAAGGGGG | 1.14 ± 0.24 |
| ACGAAGGTCG | 1.03 ± 0.059 |
